Results from paper PMC3598077 (EMBO Molecular Medicine, 2013).

Target: T1, Recombinant His-RAD51 fusion protein (UniProt Q06609 1-339)
T1 sequence: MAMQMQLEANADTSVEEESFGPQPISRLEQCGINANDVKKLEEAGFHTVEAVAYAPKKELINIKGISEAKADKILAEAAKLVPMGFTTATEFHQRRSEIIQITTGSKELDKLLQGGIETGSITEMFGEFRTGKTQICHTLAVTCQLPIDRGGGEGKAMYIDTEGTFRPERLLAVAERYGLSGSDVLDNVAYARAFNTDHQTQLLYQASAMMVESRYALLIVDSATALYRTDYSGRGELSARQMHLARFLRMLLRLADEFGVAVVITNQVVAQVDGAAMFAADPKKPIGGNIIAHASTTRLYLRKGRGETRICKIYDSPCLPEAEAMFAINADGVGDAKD
Assay: SPR

## FGGSFRTASNKEIKLSEHNIKKSKMFFKDIEEQYPT (domain or fragment) [Recombinant GST-BRC fusion protein (containing BRCA2-1005-1040, fused with GST at its N-terminal)]
  binding result: binds
